Assay results published in the nanobody polyreactivity screen of Harvey et al. (2022).

Test: yeast display, Sf9 membrane polyspecificity reagent, FACS + sequencing; frameworks hold sequencing errors
How it was run: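 In a synthetic yeast display library (Saccharomyces cerevisiae BJ5465), nanobody expression was induced with galactose for 36–48 hours. FACS gates were set low and high (top ~1%) using anti-HA fluorescence for expression and streptavidin fluorescence for binding of the Sf9 membrane reagent. Each polyreactivity label is drawn from the gate of origin.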

Row | Sequence | polyreactivity (PSR sort gate)
1 | QVQLVESGGGLVQAGGSLRLSCAASGRTFKRNGMGWYRQAPGKERELVAAIRNTGSTKYADSVKGRFTISRDNAKNTVYLQMNSLKPEDTAVYYCNARVYEAQTYYYWGQGTQVTVSS | high polyreactivity
2 | QVQLVESGGGLVQAGGSLRLSCAASGRTFKRNPMGWYRQAPGKERELVAAISGTGSTNYADSVKGRFTISRDNAKNTVYLQMNSLKPEDSAVYYCNADIYSYRYPYVYWGQGTQVTVSS | low polyreactivity
3 | QVQLVESGGGLVQAGGSLRLSCAASGRTFKRYAMGWYRQAPGKERELVAAITRSGGSTYYADSVKGRFTISRDNAKNTVYLQMNSLKPEDTAVYYCATRSYNNELEYWGQGTQVTVSS | high polyreactivity
4 | QVQLVESGGGLVQAGGSLRLSCAASGRTFKSYAMGWYRQAPGKERELVAAISSSGGRTFYADSVKGRFTISRDNAKNTVYLQMNSLKPEDTAVYYCNARYCYRYGGYKPVGGYYWGQGTQVTVSS | high polyreactivity
5 | QVQLVESGGGLVQAGGSLRLSCAASGRTFKSYSMGWYRQAPGKERELVAAISWSGGSTYYADSVKGRFTISRDNAKNTVYLQMNSLKPEDTAVYYCAKRGYASGSKWDYGYWGQGTQVTVSS | high polyreactivity
6 | QVQLVESGGGLVQAGGSLRLSCAASGRTFKTYAMGWYRQAPGKERELVAAIDSGGNTYADSVKGRFTISRDNAKNTVYLQMNSLKPEDTAVYYCAVDGGEFSSYGYWGHGTQVTVSS | low polyreactivity
7 | QVQLVESGGGLVQAGGSLRLSCAASGRTFKWYAMGWYRQAPGKERELVAGISRGAGRTYYADSVKGRFTISRDNAKNTVYLQMNSLKPEDTAVYYCAAVPSYHSTSPFYYWGQGTQVTVSS | high polyreactivity
8 | QVQLVESGGGLVQAGGSLRLSCAASGRTFKWYPMGWYRQATGKERELVAGITSTGTTSYADSVKGRFTISRDNAKNTVYLQMNSLKPEDTAVYYCNTYYRWWKYDYWGQGTQVTVSS | high polyreactivity
9 | QVQLVESGGGLVQAGGSLRLSCAASGRTFKYNTMGWYRQAPGKEREFVAAINWSGGSTYSAASVKGRFTISRDNAKNTVYLQMNSLKPEDTAVYYCAARRVYLGEYDYWGQGTQVTVSS | high polyreactivity
10 | QVQLVESGGGLVQAGGSLRLSCAASGRTFKYYAMGWYRQAPGKERELVAAISWNGGSTYYADSVKGRFTISRDNAKNTVYLQMNSLKPEDTAVYYCAARYYAAGIGSRYDYWGQGTQVTVSS | high polyreactivity
11 | QVQLVESGGGLVQAGGSLRLSCAASGRTFKYYAMGWYRQAPGKERELVASISRSGGITYYADSVKGRFTISRDNAKNTVYLQMNSLKPEDTAVYYCAARYSVRPISIYPFDFGYWGQGTQVTVSS | low polyreactivity
12 | QVQLVESGGGLVQAGGSLRLSCAASGRTFKYYAMGWYRQAPGKERELVATISFRGGSTYYADSVKGRFTISRDNAKNTVYLQMNSLKPEDTAVYYCAATTPYYTPRRRNDYWGQGTQVTVSS | high polyreactivity
13 | QVQLVESGGGLVQAGGSLRLSCAASGRTFKYYAMGWYRQAPGKERELVATITWSGTSTNYADSVKGRFTISRDNAKNTVYLQMNSLKPEDTAVYYCAARSKRRNYDYWGQGTQVTVSS | high polyreactivity
14 | QVQLVESGGGLVQAGGSLRLSCAASGRTFLAYTMGWYRQAPGKEMELVAAISTPGGSTYYADSVKGRFTISRDNAKNTVYIQMNSLKPEDTAVYYCAAADSTWFDWGNYWYYYWGQGTQVTVSS | low polyreactivity
15 | QVQLVESGGGLVQAGGSLRLSCAASGRTFLENAMGWYRQAPGKERELVAAISWRGGNTHYADSVKGRFTISRDNAKNTVYLQMNSLKPEDTAVYYCNAVNYRNKYDYWGQGTQVTVSS | high polyreactivity
16 | QVQLVESGGGLVQAGGSLRLSCAASGRTFLINAMGWYRQAPGKERELVAAINYGGGSTYYADSVKGRFTISRDNAKNTVYLQMKSLKPEDTAVYYCSTEYYDTYVGSYSYWGAKYGSWGQGTQVTVSS | low polyreactivity
17 | QVQLVESGGGLVQAGGSLRLSCAASGRTFLLYAMGWYRQAPGKERELVAAISRGGGSTFYADTVKGRFTLSRDNAKNTVYLQRNSLKPDDTAVYYCAAYGRYYYIYDYCGQGTQVTVSS | high polyreactivity
18 | QVQLVESGGGLVQAGGSLRLSCAASGRTFLQYGMGWYRQAPGKERELVAAITTSGGDTYYADSVKGRFTISRDNAKNTVYLQMNSQKPEDTAVYYCNAEPRYGTYDYWGQGTQVTVSA | low polyreactivity
19 | QVQLVESGGGLVQAGGSLRLSCAASGRTFLRYAMGWSRQAPGKERELVAAISSRGGRTYYADSVKGRFTISRDNAKNTVYLQMNILKPEDTAVYYCNARYSPRTGRGRHVTYYYWGQGTQVTVSS | high polyreactivity
20 | QVQLVESGGGLVQAGGSLRLSCAASGRTFLSYMGWYRQAPGKERELVAISRSGTSTYYADSVKGRFTISRDNAKNTVYLQMNSLKPEDTAVYYCAATRRYPQYRGYDYWGQGTQVTVSS | high polyreactivity
21 | QVQLVESGGGLVQAGGSLRLSCAASGRTFLTNPMGWYRQAPGKETELVAVITSSGGTYYADSVKGRFSISRDNAKNTVYLQMNSLKPEYTEVYYCNTRQQFTLTRGVFLHNYWGQGTQVTVSS | high polyreactivity
22 | QVQLVESGGGLVQAGGSLRLSCAASGRTFLVNAMGWYRQAPGKEREFVAAITSRSGRTNYADSVKGRFTISRDNAKNTVYLQSNSLKPEDTAVYYCNAEGYTVKYWYSRYDYWGQGTQVTVSS | high polyreactivity
23 | QVQLVESGGGLVQAGGSLRLSCAASGRTFLVYAMGWYRQAPGKERELVADITSGGSTDYADSVKGRFTISRDNAKNTVYLQMNSLKPEDTAVYYCATDLWRWYGWFDYWGQGTQVTVSS | low polyreactivity
24 | QVQLVESGGGLVQAGGSLRLSCAASGRTFLVYTMGWYRQAPGKERELVAAISWSDGSTYYADSEKGRFTISRDNAKNTVYLQMNSLKPEDTAVYYCAARRTGYLYRYGYWGQGTQVTVSS | low polyreactivity
25 | QVQLVESGGGLVQAGGSLRLSCAASGRTFLWNAMGWYRQAPGKERELVARINLSGGRTYYADSVKGRFTISRDNAKNTVYLQMNSLKPEDTAVYYCAATVVRYRRDSWGQGTQVTVSS | low polyreactivity
26 | QVQLVESGGGLVQAGGSLRLSCAASGRTFLYYAKGWYRQAPGKERELGAAISSGGSTNYADSVKGRFTISRDNAKNTVYLQMNSLKPEDTAVYYCNADYTSRDTSDVIYEYDYWGQGTQVTVSS | low polyreactivity
27 | QVQLVESGGGLVQAGGSLRLSCAASGRTFLYYAMGWYRQAPGKERELVAAIRRGSSTYYADSVKGRFTISRDNAKNTVYLQMNSLKPEDTAVYYCNKVYYAFRVSLYRYGYWGQGTQVTVSS | high polyreactivity
28 | QVQLVESGGGLVQAGGSLRLSCAASGRTFLYYAMGWYRQAPGKERELVAAISSGADSTYYADSVKGRFTISRDNAKNTVYLQMNSLKPEDTAVYYCAAGGSHDGVWDDYWGQGTQVTVSS | high polyreactivity
29 | QVQLVESGGGLVQAGGSLRLSCAASGRTFLYYTMGWYRQAPGTERELVATINYSGGRTYYADSVKGRFTISRDNANNTVYFQMNSLKPVATAVYFWAKSGRALWWYDYWGQGTQVTVSS | high polyreactivity
30 | QVQLVESGGGLVQAGGSLRLSCAASGRTFNAYAMGWYRLAPWKERELVAAISSGGSTYYADSVKGRFTISRDNAKNTVYLQMNSLKQEDTAVYYSNKVYGWRQFDYWGNGTQVTVSS | high polyreactivity
